From patent US20260242478A1 (published 2026)
Where no end group is shown, it is not given here.

How the values were obtained:
[1] = target: T1, PSMA Fab; test: clonal phage ELISA on biotinylated PSMA Fab captured on neutravidin plates, anti-M13 HRP detection;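 further: crude clonal phage supernatants tested, before phage were added, wells were pretreated with PSMA antigen in blocking buffer or with blocking buffer only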
T1 construct: Biotinylated PSMA Fab captured on neutravidin coated plates in the phage ELISA; also called Anti-PSMA Fab; 006 PSMA Fab
Procedure: (§1) Clonal phage were harvested as crude supernatants and screened via standard ELISAs. […] Prior to the addition of clonal phage. wells were incubated with blocking buffer and PSMA antigen or blocking buffer alone. Without washing or aspirating, clonal phage supernatants were then added to the wells and incubated for a short time. Wells were then washed followed by detection of bound phage using a horse radish conjugated anti-M13 antibody.

[2] = target: T1, PSMA Fab; test: clonal phage ELISA on captured PSMA Fab pre-incubated with PSMA antigen as competitor, anti-M13 HRP detection;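 further: crude clonal phage supernatants tested by ELISA, wells first treated with blocking buffer plus PSMA antigen, bound phage read out via HRP-linked anti-M13 antibody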
Procedure: as §1

[3] = target: T2, PSMA Fab (biotinylated (site not stated)); test: clonal phage ELISA on biotinylated PSMA Fab captured on neutravidin plates, anti-M13 HRP detection;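 further: crude clonal phage supernatants tested, before phage were added, wells were pretreated with PSMA antigen in blocking buffer or with blocking buffer only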
T2 construct: also called Anti-PSMA Fab; 006 PSMA Fab

[4] = target: T2, PSMA Fab; test: clonal phage ELISA on captured biotinylated PSMA Fab; competitor: PSMA antigen at saturating concentration
Procedure: as §1

[5] = target: T3, PSMA Fab (006 PSMA Fab); test: clonal phage ELISA on biotinylated PSMA Fab captured on neutravidin plates, anti-M13 HRP detection;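 further: crude clonal phage supernatants tested, before phage were added, wells were pretreated with PSMA antigen in blocking buffer or with blocking buffer only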
T3 construct: also called Anti-PSMA Fab; anti-PSMA Fab
Procedure: as §1

[6] = target: T3, PSMA Fab (006 PSMA Fab); test: clonal phage ELISA on captured PSMA Fab, wells pre-incubated with PSMA antigen as competitor, anti-M13 HRP detection;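 further: crude clonal phage supernatants added, with no intervening wash, to wells preincubated with PSMA antigen in blocking buffer, incubated briefly, then washed before detecting bound phage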
Procedure: as §1

Row | Binder | Phage binding ELISA signal, Anti-PSMA Fab [1] | phage binding ELISA signal (Anti-PSMA Fab, PSMA antigen present) [2] | Phage binding ELISA signal, Anti-PSMA Fab [3] | phage binding ELISA signal (Anti-PSMA Fab, wells pre-incubated with PSMA antigen) [4] | other results
1 | SMKMCTPPWMCEFA [Phage-2774] | 0.641 | 0.0631 |  |  | 
2 | TQHWCTPIWMCEGL [Phage-2792] |  |  | 0.597 | 0.0819 | 
3 | SDNWCKPEWMCVGH [Phage-2801] |  |  | 0.578 | 0.0873 | 
4 | HFKWCIPPWMCLEI [Phage-2798] |  |  | 0.588 | 0.298 | 
5 | EENWCIPVWMCERL [Phage-2786] | 0.607 | 0.0721 |  |  | 
6 | GPKWCTPTWMCEFS [Phage-2776] | 0.638 | 0.0754 |  |  | 
7 | ESKWCVPTWMCAEN (cysteine pairing not given here; also: fused to pIII, displayed on bacteriophage) [Phage-2799] |  |  | 0.583 | 0.0578 | 
8 | VQAWCVPQWMCNQF [Phage-2772] | 0.646 | 0.0631 |  |  | 
9 | VMKWCTPSWMCAEA (cysteine pairing not given here; also: fused to pIII, displayed on bacteriophage) [Phage-2790] |  |  | 0.599 | 0.0742 | 
10 | GWNWCVPQWMCTTS [Phage-2781] | 0.623 | 0.121 |  |  | 
11 | LNNWCTPAWMCVGY [Phage-2796] |  |  | 0.589 | 0.084 | 
12 | VPKWCTPSWMCASN (cysteine pairing not given here; also: fused to pIII, displayed on bacteriophage) [Phage-2773] | 0.643 | 0.0608 |  |  | 
13 | DLKWCVPTWMCNWS [Phage-2775] | 0.639 | 0.0692 |  |  | 
14 | GSNWCKPAWMCSVA [Phage-2777] | 0.634 | 0.0623 |  |  | 
15 | APQWCIPPWMCHDQ [Phage-2754] |  |  |  |  | Phage binding ELISA signal, Anti-PSMA Fab [5]: 0.691; Phage binding ELISA signal, Anti-PSMA Fab with PSMA antigen [6]: 0.0708
16 | SVKWCTPSWMCTEW [Phage-2788] |  |  | 0.601 | 0.104 | 
17 | DQNWCIPHWMCVGI [Phage-2779] | 0.625 | 0.0883 |  |  | 

Row | Binder | Phage binding ELISA signal, Anti-PSMA Fab [1] | phage binding ELISA signal (Anti-PSMA Fab, PSMA antigen present) [2] | Phage binding ELISA signal, Anti-PSMA Fab [3] | phage binding ELISA signal (Anti-PSMA Fab, wells pre-incubated with PSMA antigen) [4] | other results
18 | DMKLCRPAWMCMHN [Phage-2784] | 0.621 | 0.0536 |  |  | 
19 | TEKWCIPQWMCVRT [Phage-2794] |  |  | 0.592 | 0.0656 | 
20 | DYKWCTPPWMCDSR [Phage-2800] |  |  | 0.58 | 0.0697 | 
21 | VTNWCTPPWMCEML [Phage-2793] |  |  | 0.596 | 0.213 | 
22 | FEKWCTPQWMCNSM [Phage-2795] |  |  | 0.59 | 0.0699 | 
23 | VHKMCTPPWMCVTQ [Phage-2783] | 0.621 | 0.0908 |  |  | 
24 | QDKMCRPDWMCMNQ [Phage-2782] | 0.621 | 0.0706 |  |  | 
25 | VGKWCTPEWMCSGF [Phage-2789] |  |  | 0.6 | 0.0562 | 
26 | DPKWCTPSWMCDWR [Phage-2755] |  |  |  |  | Phage binding ELISA signal, Anti-PSMA Fab [5]: 0.69; Phage binding ELISA signal, Anti-PSMA Fab with PSMA antigen [6]: 0.0821
27 | LWKSCTPEWMCAEW (cysteine pairing not given here; also: fused to pIII, displayed on bacteriophage) [Phage-2787] |  |  | 0.606 | 0.0991 | 
28 | WEKWCTPSWMCSGI [Phage-2791] |  |  | 0.598 | 0.0859 | 
29 | QDKWCTPTWMCEGL [Phage-2778] | 0.631 | 0.0777 |  |  | 
30 | VLNWCTPPWMCSGI [Phage-2780] | 0.624 | 0.0732 |  |  | 
31 | DVKWCTPPWMCLSD [Phage-2785] | 0.613 | 0.1 |  |  | 
32 | ERIWCTPKWMCETF [Phage-2797] |  |  | 0.589 | 0.0657 | 
33 | QMHWCMPPWMCEGI (cysteine pairing not given here; also: fused to pIII, displayed on bacteriophage) [Phage-2771] | 0.65 | 0.0705 |  |  | 
